Substrate in this series: C[C@@H](O)[C@H](N)C(=O)O
Briefly: purified protein. The conditions noted are these: natural substrate.

In general, Km refers to the concentration of substrate that gives half-maximal velocity. For orientation: kcat means the maximal rate divided by the concentration of active sites.

B1: NmLTA (Neptunomonas marina) (protein)
chain: MASNDSCIEDTVSFTSDNIAAAAPEIVQAMAQACQGNAQPYGGDALTQNVEAQLKAIFECDLQLFLVPTGSAANAISLAALTPPWGAILCHQESHINNDECGAPEFFTAGAKLIAVAGTHGKLDPQALTQAARNKRGDVHSVEPTTVSITQATEVGSIYALDELNEIGQICRNEGLKLHMDGARFANALSALGCTPAEMTWKAGVDVLSFGATKNGSLCAEAIILFDKSYAQEIAFRRKRGGHLLSKMRFLSAQMHAYLADDLWLTNARHANLMAARLAAGLSALSRVSLIAPTESNIIFCRMPTKMIAALQQQGFQFYHDRWGDGIVRLVTSFATTQAQVDTFIAAAAQLNQNTD
Turning to B1, the Km is given as 12.3 mM and the turnover number (kcat) is 805.7 s⁻¹.

Values taken from doi:10.1101/2023.04.09.536162v1.
